# Key:
# [1] = molecular target: Gh-TDH D78A mutant (Grimontia hollisae); assay: native gel or EMSA; native PAGE, 10% polyacrylamide gel, no SDS, 4 °C, running buffer 90 mM Tris-base, 2.5 mM EDTA, 80 mM boric acid pH 8.0, 90 V for 3 h, Coomassie stain
# [2] = molecular target: Gh-TDH Y53D mutant (Grimontia hollisae)
# [3] = molecular target: Gh-TDH Y53D mutant (Grimontia hollisae); assay: AUC; 1 mg/mL protein in 20 mM Tris-HCl pH 7.2, 42,000 rpm, 20 °C, 280 nm; c(s) distribution and apparent molecular mass
# [4] = molecular target: Gh-TDH Y53D mutant (Grimontia hollisae); assay: native gel or EMSA; native PAGE, 10% polyacrylamide gel, no SDS, 4 °C, running buffer 90 mM Tris-base, 2.5 mM EDTA, 80 mM boric acid pH 8.0, 90 V for 3 h, Coomassie stain
# [5] = molecular target: Grimontia hollisae thermostable direct hemolysin, wild type (Grimontia hollisae); assay: AUC; 1 mg/mL protein in 20 mM Tris-HCl pH 7.2, 42,000 rpm, 20 °C, 280 nm; c(s) distribution and apparent molecular mass
# [6] = molecular target: Gh-TDH F159D mutant (Grimontia hollisae)
# [7] = molecular target: Gh-TDH F159D mutant (Grimontia hollisae); assay: AUC; 1 mg/mL protein in 20 mM Tris-HCl pH 7.2, 42,000 rpm, 20 °C, 280 nm; c(s) distribution and apparent molecular mass
# [8] = molecular target: Gh-TDH F159D mutant (Grimontia hollisae); assay: native gel or EMSA; native PAGE, 10% polyacrylamide gel, no SDS, 4 °C, running buffer 90 mM Tris-base, 2.5 mM EDTA, 80 mM boric acid pH 8.0, 90 V for 3 h, Coomassie stain
# [9] = molecular target: Gh-TDH Y53D/F159D double mutant (Grimontia hollisae)
substance,measurement,setting,value
Gh-TDH D78A mutant (natural protein),stoichiometry N,[1],4
Gh-TDH Y53D mutant (natural protein),"hemolytic activity on rabbit erythrocytes, decrease against Gh-TDH^WT",[2],20 fold
same,stoichiometry N,[3],2
same,stoichiometry N,[4],2
"Grimontia hollisae thermostable direct hemolysin, wild type (natural protein)",stoichiometry N,[5],4
Gh-TDH F159D mutant (natural protein),"hemolytic activity on rabbit erythrocytes, decrease against Gh-TDH^WT",[6],10 fold
same,stoichiometry N,[7],2
same,stoichiometry N,[8],2
Gh-TDH Y53D/F159D double mutant (natural protein),"hemolytic activity on rabbit erythrocytes, drop against Gh-TDH^WT",[9],200 fold

# — paper PMC6614540
